We go through 10 molecules from patent publication US20220177587A1, “METHODS AND USES OF VARIANT CD80 FUSION PROTEINS AND RELATED CONSTRUCTS” (Alpine Immune Sciences, Inc., priority 2018, published 2022).

To fix the notation:
B1: A26E/E35D/V68M/D90G (protein)
chain: VIHVTKEVKEVATLSCGHNVSVEELEQTRIYWQKDKKMVLTMMSGDMNIWPEYKNRTIFDITNNLSIMILALRPSDEGTYECVVLKYEKGAFKREHLAEVTLSVKAD
B2: H18Y/M47L/V68M/D90G (protein)
chain: B1 chain with H18Y, E26A, D35E, M47L
B3: H18Y/A26E/V68M/A71G (protein)
chain: B1 chain with H18Y, D35E, A71G, G90D
B4: A26E/E35D/M47L/D90G (protein)
chain: B1 chain with M47L, M68V
B5: H18Y/A26E/M47L/A71G (protein)
chain: B1 chain with H18Y, D35E, M47L, M68V, A71G, G90D
B6: H18Y/A26E/V68M/D90G (protein)
chain: B1 chain with H18Y, D35E
B7: H18Y/E35D/A71G/D90G (protein)
chain: B1 chain with H18Y, E26A, M68V, A71G
B8: H18C/A26P/E35D/M47L/V68M/A71G (protein, UniProt P33681 35-288, looked up, variant H18C A26P E35D M47L V68M A71G)
T-lymphocyte activation …: VIHVTKEVKEVATLSCGCNVSVEELPQTRIYWQKDKKMVLTMMSGDLNIWPEYKNRTIFDITNNLSIMILGLRPSDEGTYECVVLKYEKDAFKREHLAEVTLSVKADFPTPSISDFEIPTSNIRRIICSTSGGFPEPHLSWLENGEELNAINTTVSQDPETELYAVSSKLDFNMTTNHSFMCLIKYGHLRVNQTFNWNTTKQEHFPDNLLPSWAITLISVNGIFVICCLTYCFAPRCRERRRNERLRRESVRPV
B9: H18L/A26N/D46E/V68M/A71G/D90G (protein, UniProt P33681 35-288, looked up, variant H18L A26N D46E V68M A71G D90G)
T-lymphocyte activation …: B8 T-lymphocyte activation … with C18L, P26N, D35E, D46E, L47M, D90G
B10: H18T/A26N/E35D/M47L/V68M/A71G (protein, UniProt P33681 35-288, looked up, variant H18T A26N E35D M47L V68M A71G)
T-lymphocyte activation …: B8 T-lymphocyte activation … with C18T, P26N
modifications: Fc fusion

Where a chain is given by its changes, count along the chain named. Names may count otherwise.

Sequence of huCTLA4 (P16410 36-223): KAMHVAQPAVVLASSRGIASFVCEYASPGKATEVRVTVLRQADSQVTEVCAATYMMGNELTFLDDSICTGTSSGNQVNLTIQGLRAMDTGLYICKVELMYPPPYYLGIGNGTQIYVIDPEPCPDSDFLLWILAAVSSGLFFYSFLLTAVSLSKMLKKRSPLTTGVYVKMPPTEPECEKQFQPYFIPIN

One assay concerns the target T1, CD28 (Homo sapiens, UniProt P10747). Put plainly: Flow binding to Jurkat/IL2 reporter cells (CD28). The arrangement: host or cells: Jurkat cells expressing an IL-2-luciferase reporter. Conditions: Table E20; Jurkats (CD28); 33.3 nM. In a few lines:
(§1)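 Binding EC50 and PE mean fluorescence intensity derived by flow cytometry using PE-labelled anti-human Fc secondary. Target cells were CTLA4- or PD-L1-transfected CHO lines and CD28-expressing Jurkat/IL2 reporter cells, stained with fusion proteins on ice for 45 min following BSA blocking.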
For B1, the “CD28 MFI at 33.3 nM” value amounted to 1683.

Regarding B2, the “CD28 MFI at 33.3 nM” value is listed as 3795.

With B3, the “CD28 MFI at 33.3 nM” value amounted to 99.4.

On to B4, for which the “CD28 MFI at 33.3 nM” value is recorded as 1550.

On to B5, for which the “CD28 MFI at 33.3 nM” value was 611.

As to B6, the “CD28 MFI at 33.3 nM” value is on record as 2394.

Take B7: the “CD28 MFI at 33.3 nM” value is reported as 1310.

The same assay, now with this note: Table E20; MFI at 33.3 nM relative to CD80 WT IgV-Fc.
As to B1, the “CD28 Fold change to WT CD80” value amounted to 38.3 fold.

B2: the “CD28 Fold change to WT CD80” value came to 86.4 fold.

In the case of B3, the “CD28 Fold change to WT CD80” value came out at 2.3 fold.

Consider B4, for which the “CD28 Fold change to WT CD80” value was determined as 35.3 fold.

B5: the “CD28 Fold change to WT CD80” value amounted to 13.9 fold.

B6: the “CD28 Fold change to WT CD80” value came out at 54.5 fold.

Consider B7, for which the “CD28 Fold change to WT CD80” value was 29.8 fold.

The assay is the same for the next values; noted with them: Table E23; CD80 IgV-Fc (inert) at 33.3 nM; Jurkat (CD28).
In the case of B8, the “CD28 MFI at 33.3 nM” value was found to be 1906.

Consider B9, for which the “CD28 MFI at 33.3 nM” value stood at 7253.

Consider B10, for which the “CD28 MFI at 33.3 nM” value was 1366.

The same assay, now with this note: Table E23; MFI at 33.3 nM relative to CD80 WT IgV-Fc.
With B8, the “CD28 Fold change to WT CD80” value was found to be 18.7.

On to B9, for which the “CD28 Fold change to WT CD80” value came out at 71.1.

For B10, the “CD28 Fold change to WT CD80” value is reported as 13.4.

The next assay deals with T1, CD28. Description: Jurkat/IL2 + CHO/OKT3 +/- PD-L1 reporter assay: PD-L1-dependent CD28 costimulation. Also noted: host or cells: Jurkat cells expressing an IL-2-luciferase reporter. Conditions: Table E22; Jurkat/IL2 + CHO/OKT3/PD-L1; 5.0 nM. It is filed as cell-based. The procedure, abridged:
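Readout is relative luminescence from lysed cocultures: test protein given 15 min at room temperature to Jurkat cells before adding CHO artificial APCs displaying OKT3 alone or OKT3 plus PD-L1, then 5 h at 37 °C, 5% CO2.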
A general note: Reporter assays use an easily measured gene product as a stand-in for the process of interest.
With B1, the “Fold Increase over WT CD80-IgV-Fe” value is listed as 2.23 fold.

Turning to B2, the “Fold Increase over WT CD80-IgV-Fe” value came out at 2.14 fold.

As for B3, the “Fold Increase over WT CD80-IgV-Fe” value turned out to be 1.20 fold.

Turning to B4, the “Fold Increase over WT CD80-IgV-Fe” value stood at 2.16 fold.

Turning to B5, the “Fold Increase over WT CD80-IgV-Fe” value was found to be 2.84 fold.

Consider B6, for which the “Fold Increase over WT CD80-IgV-Fe” value came out at 2.90 fold.

Turning to B7, the “Fold Increase over WT CD80-IgV-Fe” value is given as 3.81 fold.

The same assay, now with this note: Table E22; Jurkat/IL2 + CHO/OKT3/PD-L1; CD80 Conc 5.0 nM.
Regarding B1, the “Relative Luciferase Units (RLU), CD80 Conc 5.0 nM” value (from here on “Relative Luciferase Units (RLU)”) is 871 RLU.

B2: the “Relative Luciferase Units (RLU)” value worked out at 834 RLU.

B3: the “Relative Luciferase Units (RLU)” value is on record as 469 RLU.

For the molecule B4, the “Relative Luciferase Units (RLU)” value stood at 843 RLU.

As to B5, the “Relative Luciferase Units (RLU)” value came out at 1107 RLU.

Regarding B6, the “Relative Luciferase Units (RLU)” value is 1131 RLU.

Turning to B7, the “Relative Luciferase Units (RLU)” value was determined as 1487 RLU.

The assay is the same for the next values; noted with them: Table E24; Jurkat/IL2 + CHO/OKT3/PD-L1; 5.0 nM.
For B8, the “Fold Increase over WT CD80-IgV-Fe” value is 5.5 and the “Relative Luciferase Units (RLU)” value was found to be 936 RLU.

For B9, the “Fold Increase over WT CD80-IgV-Fe” value is given as 4.8 and the “Relative Luciferase Units (RLU)” value was found to be 815 RLU.

Take B10: the “Fold Increase over WT CD80-IgV-Fe” value worked out at 6.2 and the “Relative Luciferase Units (RLU)” value is given as 1053 RLU.

Another assay concerns the target huCTLA4 (Homo sapiens, UniProt P16410). Description: Flow binding to CHO cells stably expressing CTLA4. The arrangement: huCTLA4 and huPD-L1, full-length mammalian surface expression constructs were generated; expressed in transfected cells; host or cells: CHO cells, lentiviral transduction, sorted to >98% purity. The settings on record: Table E20; CHO cells stably expressing CTLA4; 33.3 nM. The procedure, abridged: as §1
For B1, the “CTLA4 MFI at 33.3 nM” value came to 13879.

In the case of B2, the “CTLA4 MFI at 33.3 nM” value is reported as 19006.

Turning to B3, the “CTLA4 MFI at 33.3 nM” value was 11323.

For the molecule B4, the “CTLA4 MFI at 33.3 nM” value stood at 18167.

Turning to B5, the “CTLA4 MFI at 33.3 nM” value is reported as 22108.

For the molecule B6, the “CTLA4 MFI at 33.3 nM” value is listed as 25794.

As to B7, the “CTLA4 MFI at 33.3 nM” value is listed as 25886.

The assay is the same for the next values; noted with them: Table E20; MFI at 33.3 nM relative to CD80 WT IgV-Fc.
Consider B1, for which the “CTLA4 Fold change to WT CD80” value stood at 10.2 fold.

B2: the “CTLA4 Fold change to WT CD80” value was determined as 14.0 fold.

On to B3, for which the “CTLA4 Fold change to WT CD80” value was 8.3 fold.

As to B4, the “CTLA4 Fold change to WT CD80” value is listed as 13.4 fold.

Regarding B5, the “CTLA4 Fold change to WT CD80” value came to 16.3 fold.

As for B6, the “CTLA4 Fold change to WT CD80” value is 19.0 fold.

For the molecule B7, the “CTLA4 Fold change to WT CD80” value amounted to 19.0 fold.

The same assay, now with this note: Table E23; CD80 IgV-Fc (inert) at 33.3 nM; CHO cells stably expressing CTLA4.
For B8, the “CTLA4 MFI at 33.3 nM” value is 23371.

As to B9, the “CTLA4 MFI at 33.3 nM” value is listed as 17045.

With B10, the “CTLA4 MFI at 33.3 nM” value was 20911.

The assay is the same for the next values; noted with them: Table E23; MFI at 33.3 nM relative to CD80 WT IgV-Fc.
Regarding B8, the “CTLA4 Fold change to WT CD80” value is reported as 16.9.

For the molecule B9, the “CTLA4 Fold change to WT CD80” value is 12.3.

Consider B10, for which the “CTLA4 Fold change to WT CD80” value came out at 15.1.

For the next assay, the target named is huPD-L1 (Homo sapiens, UniProt Q9NZQ7). Description: Flow binding to CHO cells stably expressing PD-L1. The arrangement: huCTLA4 and huPD-L1, full-length mammalian surface expression constructs were generated; expressed in transfected cells; host or cells: CHO cells, lentiviral transduction, sorted to >98% purity. Conditions: Table E20; CHO cells stably expressing PD-L1; 33.3 nM. In a few lines: as §1
Sequence of huPD-L1 (Q9NZQ7 19-290): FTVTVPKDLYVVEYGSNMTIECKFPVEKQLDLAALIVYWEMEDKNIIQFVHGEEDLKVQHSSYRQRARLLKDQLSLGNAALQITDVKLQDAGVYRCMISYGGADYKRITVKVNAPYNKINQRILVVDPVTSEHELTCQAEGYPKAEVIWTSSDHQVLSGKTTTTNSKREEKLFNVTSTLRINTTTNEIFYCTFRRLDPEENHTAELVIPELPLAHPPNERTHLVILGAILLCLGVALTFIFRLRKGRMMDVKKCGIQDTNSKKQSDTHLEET
For B1, the “PD-L1 MFI at 33.3 nM” value was 6987.

As to B2, the “PD-L1 MFI at 33.3 nM” value was 21768.

As to B3, the “PD-L1 MFI at 33.3 nM” value stood at 6866.

For B4, the “PD-L1 MFI at 33.3 nM” value worked out at 9577.

Take B5: the “PD-L1 MFI at 33.3 nM” value was 15563.

In the case of B6, the “PD-L1 MFI at 33.3 nM” value was determined as 12845.

Turning to B7, the “PD-L1 MFI at 33.3 nM” value stood at 8524.

The same assay, now with this note: Table E20; MFI at 33.3 nM relative to CD80 WT IgV-Fc.
Consider B1, for which the “PD-L1 Fold change to WT CD80” value was 160.3 fold.

Take B2: the “PD-L1 Fold change to WT CD80” value was determined as 499.3 fold.

On to B3, for which the “PD-L1 Fold change to WT CD80” value amounted to 157.5 fold.

B4: the “PD-L1 Fold change to WT CD80” value worked out at 219.7 fold.

Turning to B5, the “PD-L1 Fold change to WT CD80” value was determined as 356.9 fold.

Take B6: the “PD-L1 Fold change to WT CD80” value stood at 294.6 fold.

Take B7: the “PD-L1 Fold change to WT CD80” value amounted to 195.5 fold.

Staying with this assay, now noted: Table E20; ratio of MFI at 33.3 nM.
As to B1, the “Ratio of PDL1:CD28” value is reported as 4.2.

As for B2, the “Ratio of PDL1:CD28” value was determined as 5.7.

For B3, the “Ratio of PDL1:CD28” value is recorded as 69.1.

For the molecule B4, the “Ratio of PDL1:CD28” value amounted to 6.2.

As for B5, the “Ratio of PDL1:CD28” value stood at 25.5.

Take B6: the “Ratio of PDL1:CD28” value is given as 5.4.

On to B7, for which the “Ratio of PDL1:CD28” value worked out at 6.5.

The same assay, now with this note: Table E23; CD80 IgV-Fc (inert) at 33.3 nM; CHO cells stably expressing PD-L1.
Take B8: the “PD-L1 MFI at 33.3 nM” value worked out at 67010.

Turning to B9, the “PD-L1 MFI at 33.3 nM” value is 67999.

For the molecule B10, the “PD-L1 MFI at 33.3 nM” value came out at 68498.

Still in this assay, the particulars now being: Table E23; MFI at 33.3 nM relative to CD80 WT IgV-Fc.
Take B8: the “PD-L1 Fold change to WT CD80” value turned out to be 406.1.

Regarding B9, the “PD-L1 Fold change to WT CD80” value was determined as 412.1.

With B10, the “PD-L1 Fold change to WT CD80” value was found to be 415.1.

Still in this assay, the particulars now being: Table E23; ratio of MFI at 33.3 nM.
B8: the “Ratio of PDL1:CD28” value worked out at 35.2.

For B9, the “Ratio of PDL1:CD28” value stood at 9.4.

B10: the “Ratio of PDL1:CD28” value stood at 50.1.
